Patent US20220332804A1 (CSL INNOVATION, published 2022)
Where a chain is given by its changes, count along the chain named.

Tests used:
Assay in all cases: SPR, KD relative to WT C2;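 note: biacore SPR at 37 °C, anti-C2 mAbs captured on anti-human IgG chips with alanine or serine point mutants of C2 as analyte, KD from 1:1 fit compared with wild-type C2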
human C2 K329A = target: T1, human C2 K329A (human, UniProt P06681 21-752)
T1 sequence: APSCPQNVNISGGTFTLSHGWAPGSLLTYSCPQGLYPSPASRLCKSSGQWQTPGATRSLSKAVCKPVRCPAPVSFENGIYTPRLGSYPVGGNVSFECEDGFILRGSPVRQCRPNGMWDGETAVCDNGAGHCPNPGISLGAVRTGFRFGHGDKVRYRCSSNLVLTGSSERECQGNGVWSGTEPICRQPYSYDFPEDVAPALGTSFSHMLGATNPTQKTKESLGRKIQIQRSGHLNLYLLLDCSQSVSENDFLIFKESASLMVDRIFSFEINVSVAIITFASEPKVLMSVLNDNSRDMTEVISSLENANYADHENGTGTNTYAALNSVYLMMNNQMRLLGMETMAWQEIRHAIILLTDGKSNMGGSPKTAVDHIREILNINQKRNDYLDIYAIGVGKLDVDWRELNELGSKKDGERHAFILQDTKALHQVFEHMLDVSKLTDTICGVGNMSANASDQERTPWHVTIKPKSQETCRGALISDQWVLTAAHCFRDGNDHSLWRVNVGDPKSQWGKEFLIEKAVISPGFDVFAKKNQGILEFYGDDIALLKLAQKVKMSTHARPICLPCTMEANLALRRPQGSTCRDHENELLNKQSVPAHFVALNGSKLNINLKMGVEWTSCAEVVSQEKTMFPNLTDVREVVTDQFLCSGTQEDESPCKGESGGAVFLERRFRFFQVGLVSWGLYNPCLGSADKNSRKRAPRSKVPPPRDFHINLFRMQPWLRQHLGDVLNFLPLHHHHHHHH

human C2 G427A = target: T2, human C2 G427A (human, UniProt P06681 21-752)
T2 sequence: T1 sequence with A309K, G407A

human C2 E267A = target: T3, human C2 E267A (human, UniProt P06681 21-752)
T3 sequence: T1 sequence with E247A, A309K

human C2 N471A = target: T4, human C2 N471A (human, UniProt P06681 21-752)
T4 sequence: T1 sequence with A309K, N451A

B1: RF16-242 (antibody, human IgG4 S228P, lambda, V domains shown)
VH: EVQLLQSGAEVKKPGESLKISCKGSGYSFTSYWIGWVRQMPGKGLEWMGIIYPGDSDTRYSPSFQGQVTISADKSISTAYLQWSSLKASDTAMYYCARRGHYGDYFDYWGQGTLVTVSS
VL: SYELTQPPSVSVSPGQTARITCSGDALPKKYAYWYHQKSGQAPVLVIYEDRRRPSEIPERFSGSSSGTMATLTITGAQVEDEGVYFCYSRDRAGNQRVFGGGTQLTVLG
notes: pH-dependent anti-C2 antibody from a phage display library
**Q.** For B1, which Fold diff (human C2 K329A) is on record?
**A.** 2 fold

**Q.** What about the Fold diff (human C2 G427A) of the same binder?
**A.** 1 fold

**Q.** And the Fold diff (human C2 E267A)?
**A.** 2 fold

**Q.** What about the Fold diff (human C2 N471A) of the same binder?
**A.** 1 fold
